Key:
Experiment in all cases: Kinetic parameters for hydrolysis of internally quenched fluorogenic peptides by secPHEX
Format in all cases: biochemical, human
Settings in all cases: other: 37° C., 10 mM Bis-Tris buffer pH 5.5, 150 mM NaCl
[1] = substrate: NC(=O)[C@H](CCCCNc1ccc([N+](=O)[O-])cc1[N+](=O)[O-])NC(=O)[C@H](Cc1ccc(O)cc1)NC(=O)[C@H](CC(=O)O)NC(=O)[C@H](CO)NC(=O)[C@H](Cc1ccccc1)NC(=O)CNC(=O)c1ccccc1N
Method: (§1) The human recombinant secPHEX was obtained following the procedure previously described (17, WO 00/50580). Purified secPHEX concentration was determined using the Bradford method (DC protein assay kit; Bio-Rad, Mississauga, ON, Canada). Membrane-bound recombinant human PHEX was expressed in LLC-PK1 cells (17, (WO 00/50580)) and membranes were prepared essentially as described by Guo et al. (34). Briefly, transfected cells resuspended in lysis buffer (150 mM NaCl, 20 mM Tris.HCl, pH 7.6) were disrupted by sonication. Cell debris were removed by centrifugation at 300 g for 15 min at 4 °C. Membranes were collected by centrifugation at 30,000 g for 50 min and solubilized for 2h with 1% n-dodecyl-β-D-maltoside in lysis buffer. Insoluble material was pelleted by centrifugation at 10,000 g for 15 min and protein concentrations of the supernatant determined using the Bradford method described above. PHEX amounts were evaluated by immunoblotting as described previously (17). NEP expression and purification were performed as described previously (36).
(§2) The hydrolysis of the IQFPs, at 37° C., in 10 mM Bit-Tris buffer pH 5.5 (0.35 to 1.0 ml final volume) containing 150 mM NaCl, was continuously followed measuring the fluorescence at γem=420 nm and γex=320 nm in a Hitachi F-2000™ spectrofluorometer. The cuvefte containing the buffer and the substrate was placed in a thermostatically controlled cell compartment for 5 min before the addition of the enzyme and the increase in fluorescence with time was continuously recorded for 5-10 min. The enzyme concentration for initial rate determination was chosen at a level intended to hydrolyze less than 5% of the substrate present. The slope was converted into micromoles of substrate hydrolyzed per min based on a calibration curve obtained from complete hydrolysis of each peptide. The inner-filter effect was corrected using an empirical equation as previously described (43). The kinetic parameters Km and kcat were calculated by the non-linear regression data analysis Grafit program (42). The kcat/Km values were calculated as the ratio of these two determined parameters. The apparent second order rate constant kcat/Km (*kIt/Km) was determined under pseudo first-order conditions, where [S]<<Km. These determinations were performed in two different substrate concentrations and the errors were less than 5% for any obtained value.
(§3) To determine the position of cleavage in peptides of the IQFPs combinatorial libraries, the products resulting from hydrolysis by secPHEX were submitted to N-terminal amino acid sequencing in a PPSQ-23protein sequencer (Shimadzu Tokyo, Japan). The scissile bonds in the IQFPs secPHEX substrates derived from PTHrP107-139, FGF-23and MEPE were determined by amino acid sequencing and by MALDI-TOF™ mass spectrometry (TofSpec-E™, Micromass, Manchester, U.K.) after isolation of the fragments resulting from the hydrolysis by secPHEX by analytical HPLC.
(§4) The assays were performed at 37° C., in 10 mM Bis-Tris buffer pH 5.5, containing 150 mM NaCl. Measurements were made as described under the heading “Experimental Procedures” above. Cleavage sites are indicated as arrows (↓). The standard deviations of the kinetic constants were less than 5%.
(§5) The assays were performed at 37° C., in 10 mM Bis-Tris buffer pH 5.5, containing 150 mM NaCl. Measurements were made as described under the heading “Experimental Procedures” above. Cleavage sites are indicated by arrows (↓). The standard deviations of the kinetic constants were less than 5%.
(§6) The assays were. performed at 37° C., in 10 mM Bis-Tris buffer pH 5.5, containing 150 mM NaCl. Measurements were made as described under the heading “Experimental Procedures” above. Cleavage sites are indicated by arrows (↓). The standard deviations of the kinetic constants were less than 5%.
(§7) The assays were performed at 37° C., in 10 mM Bis-Tris buffer pH 5.5, containing 150 mM NaCl. Measurements were made as described under “Experimental Procedures”. […]

[2] = substrate: N=C(N)NCCC[C@H](NC(=O)c1ccccc1N)C(=O)N[C@@H](CCCNC(=N)N)C(=O)N[C@@H](CC(=O)O)C(=O)N[C@@H](CC(=O)O)C(=O)N[C@@H](CO)C(=O)N[C@@H](CO)C(=O)N[C@@H](CCC(=O)O)C(=O)N[C@@H](CCC(N)=O)C(=O)NCCNc1ccc([N+](=O)[O-])cc1[N+](=O)[O-]
Method: as §1, §2, §3, §4, §5, §6, §7

[3] = substrate: NC(=O)CC[C@H](NC(=O)[C@H](CO)NC(=O)CNC(=O)[C@H](CO)NC(=O)[C@H](CC(=O)O)NC(=O)[C@H](CO)NC(=O)[C@H](CO)NC(=O)c1ccccc1N)C(=O)NCCNc1ccc([N+](=O)[O-])cc1[N+](=O)[O-]
Method: as §1, §2, §3, §4, §5, §6, §7

[4] = substrate: C[C@H](NC(=O)[C@H](CO)NC(=O)c1ccccc1N)C(=O)N[C@@H](CCC(=O)O)C(=O)N[C@@H](CC(=O)O)C(=O)N[C@@H](CC(N)=O)C(=O)N[C@@H](CO)C(=O)N1CCC[C@H]1C(=O)N[C@@H](CCC(N)=O)C(=O)NCCNc1ccc([N+](=O)[O-])cc1[N+](=O)[O-]
Method: as §1, §2, §3, §4, §5, §6, §7

[5] = substrate: C[C@H](NC(=O)[C@H](CO)NC(=O)[C@H](CCC(N)=O)NC(=O)[C@@H](NC(=O)[C@H](Cc1c[nH]cn1)NC(=O)[C@H](CCCNC(=N)N)NC(=O)[C@H](CCCNC(=N)N)NC(=O)c1ccccc1N)[C@@H](C)O)C(=O)N[C@@H](CCC(=O)O)C(=O)N[C@@H](CC(=O)O)C(=O)N[C@@H](CC(=O)O)C(=O)N[C@@H](CO)C(=O)N[C@@H](CCC(=O)O)C(=O)N[C@@H](CCCNC(=N)N)C(=O)N[C@@H](CCC(N)=O)C(=O)NCCNc1ccc([N+](=O)[O-])cc1[N+](=O)[O-]
Method: as §1, §2, §3, §4, §5, §6, §7

B1: human recombinant secPHEX (Homo sapiens) (protein)
chain: SLQAKQEYCLKPECIEAAAAILSKVNLSVDPCDNFFRFACDGWISNNPIPEDMPSYGVYPWLRHNVDLKLKELLEKSISRRRDTEAIQKAKILYSSCMNEKAIEKADAKPLLHILRHSPFRWPVLESNIGPEGVWSERKFSLLQTLATFRGQYSNSVFIRLYVSPDDKASNEHILKLDQATLSLAVREDYLDNSTEAKSYRDALYKFMVDTAVLLGANSSRAEHDMKSVLRLEIKIAEIMIPHENRTSEAMYNKMNISELSAMIPQFDWLGYIKKVIDTRLYPHLKDISPSENVVVRVPQYFKDLFRILGSERKKTIANYLVWRMVYSRIPNLSRRFQYRWLEFSRVIQGTTTLLPQWDKCVNFIESALPYVVGKMFVDVYFQEDKKEMMEELVEGVRWAFIDMLEKENEWMDAGTKRKAKEKARAVLAKVGYPEFIMNDTHVNEDLKAIKFSEADYFGNVLQTRKYLAQSDFFWLRKAVPKTEWFTNPTTVNAFYSASTNQIRFPAGELQKPFFWGTEYPRSLSYGAIGVIVGHEFTHGFDNNGRKYDKNGNLDPWWSTESEEKFKEKTKCMINQYSNYYWKKAGLNVKGKRTLGENIADNGGLREAFRAYRKWINDRRQGLEEPLLPGITFTNNQLFFLSYAHVRCNSYRPEAAREQVQIGAHSPPQFRVNGAISNFEEFQKAFNCPPNSTMNRGMDSCRLW
notes: pure soluble form of PHEX (secPHEX); made in house
**Q.** With B1 as the protein, how does the Km [1] read?
**A.** The Km was 53.2 µM.

**Q.** What about the kcat [1] of the same protein?
**A.** The kcat was 1.3 s⁻¹.

**Q.** What about the kcat/Km [1] of the same protein?
**A.** Its kcat/Km is 24400 M⁻¹ s⁻¹.

**Q.** And the Km [2]?
**A.** The Km was 5.3 µM.

**Q.** What about the kcat [2] of the same protein?
**A.** The kcat was 0.5 s⁻¹.

**Q.** And the kcat/Km [2]?
**A.** The kcat/Km was 94300 M⁻¹ s⁻¹.

**Q.** What about the Km [3] of the same protein?
**A.** The Km was 31.6 µM.

**Q.** What about the kcat [3] of the same protein?
**A.** Its kcat is 0.2 s⁻¹.

**Q.** And the kcat/Km [3]?
**A.** The kcat/Km was 7100 M⁻¹ s⁻¹.

**Q.** And the Km [4]?
**A.** The Km was 22.0 µM.

**Q.** And the kcat [4]?
**A.** Its kcat is 0.3 s⁻¹.

**Q.** And the kcat/Km [4]?
**A.** The kcat/Km was 13600 M⁻¹ s⁻¹.

**Q.** What about the Km [5] of the same protein?
**A.** Its Km is 1.7 µM.

**Q.** What about the kcat [5] of the same protein?
**A.** Its kcat is 0.15 s⁻¹.

**Q.** And the kcat/Km [5]?
**A.** The kcat/Km was 88200 M⁻¹ s⁻¹.
